We go through four molecules from PMC7509637 (Advanced Science, 2020).

Data set [1] deals with T1, Aβ (Homo sapiens, UniProt P05067).
T1 construct: purchased Anaspec Inc
The data set is described as follows: ThT kinetic assay of Aβ fibrillization (seeding with FapC species, Aβ seeds, bLgS). As to conditions: 37 °C, n = 3; for effect on Aβ fibrillization (ThT): Aβ 50 × 10^−6 M, seeds/FapC species 5 × 10^−6 M, ThT fluorescence ex 445/em 485 nm; for effect on rate constant k of Aβ (in words): 5 × 10^−6 M with Aβ 50 × 10^−6 M, FapCS *, p < 0.05, FapC monomer and fibrils **, p < 0.005. It counts as biochemical. How it is done:
FapC seeds (FapCS) were produced by FapC fibrils of three different ages. The FapC monomers were produced as described^[ ^45 ^] and stored in 6 M GdmCl. Prior to fibrillization, the FapC monomers were purified via a PD10 desalting column. FapC monomers (1 mg mL^−1 or 40 × 10^−6 M) were incubated in deionized water at 37 °C for 1 week to produce mature fibrils and at 37 °C or 25 °C for 4 d to obtain young fibrils. Deionized water was used to make FapC fibrils as it is convenient to transfer the samples to other experimental conditions, i.e., buffered Aβ solution or PBS for in vivo microinjection. However, bacterial amyloids like FapC and curli can make amyloids over a range of conditions.^[ ^93 ^] FapCS were produced by sonicating an aqueous solution of FapC fibrils (10 × 10^−6 M) at 20 power of a probe sonicator (Sonics Vibracell: 750 watts and 20 kHz) for 2 min with 1 s on/off cycle. For in vitro cross‐seeding experiments, 50 × 10^−6 M of Aβ monomers were incubated with 5 × 10^−6 M of FapCS (10:1 molar ratio, Aβ:FapCS) at 37 °C. bLg amyloids were synthesized by heating of bLg monomers (80 °C, pH 2) of 10 mg mL^−1 solution for 24 h. Prior to the production of bLgS, the bLg amyloid solution was brought to pH 7 and then sonicated, similar to FapC, to generate bLgS.
Aβ (Anaspec Inc., purity ≥ 95%) was dissolved in 100 µL of hexafluoro‐2‐propanol (HFIP) and incubated at room temperature for 3 h. The acquired aliquots of this solution were freeze dried and stored at −20 °C for further experimentation. […] For the ThT kinetic assay, a 100 µL of aqueous solution containing Aβ (50 × 10^−6 M), FapCS or bLgS (5 × 10^−6 M) and ThT dye (100 × 10^−6 M) was incubated (37 °C) in a 96‐well plate. The ThT fluorescence (excitation: 445 nm/ emission: 485 nm) was recorded at specified time intervals for 50 h. Kinetic parameters (rate constant k, half‐life t 1/2 and lag‐time) were calculated as described.^[ ^94 ^] Briefly, kinetic curves were fitted to a sigmoidal curve =y0+ymax−y0/1+e^−(t−t1/2)k , where y 0 and y max are initial and final ThT fluorescence values, allowing us to calculate lag time = t 1/2 − 2/k.

For data set [2], the target named is T1, Aβ. The data set is described as follows: Static light scattering (SLS) of Aβ fibrillar growth. Format: biochemical. As to conditions: ratio as for ThT assay, Malvern Zetasizer Nano, n = 3. The protocol: Increases in the size of Aβ in the presence and absence of FapCS or bLgS were monitored by SLS. Solution of Aβ with FapCS or bLgS, at a similar ratio as for the ThT assay, was prepared and incubated. SLS measurements were performed at different time intervals using a Malvern Zetasizer Nano. The parameters were fixed at 7 for attenuator and 4.20 mm for cell position. Quartz cells with low volume capacity (100 µL) were used. The light scattering intensities (kilo counts per sec) and the refractive indices of the samples, buffer alone and toluene were measured.

Data set [3] has as its target T1, Aβ. Kind of data set: TEM imaging of Aβ with FapC species or bLgS. As to conditions: 12 h incubation, uranyl acetate negative stain. How it is done: (§1) Aβ incubated in the presence or absence of FapCS, FapC monomers, FapC fibrils or bLgS were subjected to TEM imaging. After incubation for 12 h, a drop of sample was applied on a glow‐discharged carbon‐coated copper grid. After 1 min, the sample was blotted and then negatively stained with uranyl acetate (1%) for 30 s. The dried grid was then imaged with a Technei F20 TEM at 200 kV. For AFM, a drop of sample was placed on freshly cleaved mica surface and rinsed with water after 2 min and dried with pressurized air. The sample was scanned with an AFM (Nanoscope VIII Multimode Scanning Force Microscopes, Bruker), covered with an acoustic hood to minimize the vibrational noise. Images were acquired under the tapping mode with a silicon nitride cantilever (Bruker). AFM images were processed with Nanoscope Analysis 1.5 software to flatten the background and to calculate the statistical parameters.

Data set [4] addresses T1, Aβ. Kind of data set: Circular dichroism spectroscopy, secondary structure. The settings on record: incubation with Aβ, Figure S7. The protocol: Solutions of 200 µL, at similar molar ratios as for ThT assay, were prepared and incubated at 37 °C. CD spectra for different samples at 0, 12 and 48 h were measured with a CD spectrophotometer (Jasco) from 190 to 240 nm (1 nm step size). The percentage secondary structure was calculated by the CD data via Dichroweb analysis with parameters of Contin/reference set 4.^[ ^95 ^]
Background: Circular dichroism is the unequal absorption of left and right circularly polarised light.

The next data set has as its system Aβ monomers. Kind of data set: Isothermal titration calorimetry (ITC). It counts as binding. The settings on record: Aβ 200 × 10^−6 M into 20 × 10^−6 M seeds, 0.1% NH4OH, 25 °C. How it is done:
ITC (Malvern MicroCal iTC200) was used to explore the interaction between Aβ monomers and oligomers (Aβo) with FapCS. Sample solutions were degassed at 25 °C while stirring (100 rpm). Aβ (200 × 10^−6 M, 40 µL) was filled into the syringe while FapCS or bLgS (20 × 10^−6 M, 200 µL) were filled in the cell (coin shaped). 0.1% NH4OH buffer solution was used for both solutions. Aβ was injected into the cell at an injection volume of 2 µL at the duration of 4 s and with a spacing of 180 s. First injection was 0.2 µL for 0.4 s duration and a total of 16 injections were programed. The heat exchange was recorded with a Microcal analysis (origin v7) software. The heat of dilution (Aβ against buffer) was subtracted from the interaction heat of samples. The acquired curves were fitted to a sequential binding model and thermodynamic parameters of binding energy (ΔH), free energy (ΔG), and entropic factor (TΔS) were calculated. Aβo for the ITC experiments was prepared by incubating Aβ aqueous solution (200 × 10^−6 M) at 4 °C for 48 h.^[ ^65 ^]
A general note: In ITC the heat of successive injections is recorded.

The test system of another data set is Aβ fibrils. The data set is described as follows: AFM of fibrils, FiberApp statistical analysis. How it is done: as §1

Entries after “also recorded” stand apart in the source; their conditions may differ.

As to “bLgS: seeds from whey protein β‐lactoglobulin amyloids by sonication [reference compound]”, the “effect on Aβ fibrillization (ThT)” value in the data set with Aβ [1] was “did not render any acceleration of Aβ fibrillization”. Further, in the data set with Aβ [2], the “Aβ fibrillar growth by SLS” value was “did not render any acceleration of Aβ fibrillization”. Also, the TEM observation result in the data set with Aβ [3] is listed as “did not render any acceleration of Aβ fibrillization”. Further, the “effect on secondary structure (in words)” value with Aβ [4] was “did not induce β‐sheet formation in Aβ; also recorded: α‐helical and random‐coil structures of bLgS were slightly increased”. Moreover, the “binding to Aβ by ITC (in words)” value in the data set with Aβ monomers is on record as “Insubstantial binding”.

B1: FapC monomers: monomeric FapC, purified via a PD10 desalting column (protein)
chain: GNEGGWHPPKPNPQSNNKGGATALVVDTQQNYNNKVSNFGTLNNASVSGSIKDASGNVGVNVAAGDNNQQANAAALASADASFVFGTATASTSVLQSGYGNTLNNYSNPNTASLSNSANNVSGNLGVNVAAGNFNQQKNDLAAAVSNGQYSTAGSAASQTSTGNTTVNSANYAYGGTYVSLKLNADGSYKGTSDQIGDVYLDTWEGQTHPGGSNTGHIDVDSQAQGAKDLNHDGGAFAFKEKGDVDLKGTVSGFIPAIVGFKTPVTNNASLSNSLQNVSGNVGVNIAAGGGNQQSNSLSIAAGCSSCPAGGESLGF
Turning to B1, in the data set with Aβ [1], the “effect on rate constant k of Aβ (in words)” value is on record as “significantly suppressed” and the “effect on Aβ fibrillization (ThT)” value is on record as “lacked such acceleratory effect”. Besides, in the data set with Aβ [3], the TEM observation entry is given as “appeared to aggregate on top of Aβ fibrils”.

B2: FapC fibrils: FapC incubated in deionized water at 37 °C for 1 week, nonsonicated fibrils (protein)
chain: GNEGGWHPPKPNPQSNNKGGATALVVDTQQNYNNKVSNFGTLNNASVSGSIKDASGNVGVNVAAGDNNQQANAAALASADASFVFGTATASTSVLQSGYGNTLNNYSNPNTASLSNSANNVSGNLGVNVAAGNFNQQKNDLAAAVSNGQYSTAGSAASQTSTGNTTVNSANYAYGGTYVSLKLNADGSYKGTSDQIGDVYLDTWEGQTHPGGSNTGHIDVDSQAQGAKDLNHDGGAFAFKEKGDVDLKGTVSGFIPAIVGFKTPVTNNASLSNSLQNVSGNVGVNIAAGGGNQQSNSLSIAAGCSSCPAGGESLGF
In the case of B2, in the data set with Aβ [1], the “effect on rate constant k of Aβ (in words)” value is listed as “significantly suppressed” and the “effect on Aβ fibrillization (ThT)” value was “lacked such acceleratory effect; also recorded: significantly suppressed”. Further, in the data set with Aβ [3], the TEM observation result was “did not coat FapC fibrils”. In addition, in the data set on Aβ fibrils (FiberApp), the “pitch size of fibrils” value was found to be 26 nm. Further, the fibril diameter in the data set with Aβ fibrils (from fibril heights, mean ± SD) is reported as 3.6 ± 1.0 nm.

B3: FapCS derived from younger FapC fibrils: seeds from FapC fibrils fibrillated for 4 d at 37 °C and 25 °C (protein, UniProt Q9I2F0 25-340, looked up)
Functional amyloid subunit …: GNEGGWHPPKPNPQSNNKGGATALVVDTQQNYNNKVSNFGTLNNASVSGSIKDASGNVGVNVAAGDNNQQANAAALASADASFVFGTATASTSVLQSGYGNTLNNYSNPNTASLSNSANNVSGNLGVNVAAGNFNQQKNDLAAAVSNGQYSTAGSAASQTSTGNTTVNSANYAYGGTYVSLKLNADGSYKGTSDQIGDVYLDTWEGQTHPGGSNTGHIDVDSQAQGAKDLNHDGGAFAFKEKGDVDLKGTVSGFIPAIVGFKTPVTNNASLSNSLQNVSGNVGVNIAAGGGNQQSNSLSIAAGCSSCPAGGESLGF
modifications: sonicated fibril seeds
notes: seeds from FapC fibrils fibrillated for 4 d at 37 °C and 25 °C
As to B3, the “effect on Aβ fibrillization (ThT)” value with Aβ [1] is reported as “accelerated Aβ fibrillization (Figure S3, Supporting Information), but less than the seeds derived from mature FapC fibrils”.
